According to PMC9529537 (The Innovation, 2022):

B1: YD73 Fab (Fab, V domains shown)
VH: QVQLVQSGAEVKKPGASVKVSCKASGYTFIAYGISWVRQAPGQGLEWMGWISAHNGNTNYAQKFQGRVTVTTDTTTRTAFMELRNLRSDDTAVYYCARAPWEYNYRSSGYYDSPYWGQGTLVTVSS
VL: EIVLTQSPGTLSLSPGERATLSCRASQSVVSTYLAWYQQKPGQAPRLLIYDTSTRATGIPDRFSGSGSGTDFTLTISRLEPEDFAVYYCQHYDSSPPWTFGQGTKVEIK
B2: YD6 Fab (Fab, V domains shown)
VH: EVQLVESGGGLVKPGGSLRLSCAASGFIFSDYYMMWIRQAPGKGLEWISYISSSGSQIYYTESVKGRFTISRDNGKNLLYLQMNSLRGEDTALYYCATETGWRIDTWGQGTLVTVSS
VL: QAVLTQPASVSGSPGQSITISCTGTGSNIETYNLVSWYQRHPGKAPKLILYEVSERPSGVSNRFSGSKSGNTASLTISGLQAEDEADYFCCSYADTNIFWVFGGGTHLTVL
B3: YD6 scFv (scFv, V domains shown)
VH: B2 VH
VL: B2 VL

Target: yellow fever virus soluble envelope (E) protein (Yellow fever virus, strain CNYF01/2016 …)
Test: crystal structure

Binder | binding result
B1 | binds
B2 | binds
B3 | binds
